How the values were obtained:
Lpg2149, wild type = Lpg2149, wild type (Legionella pneumophila, UniProt Q5ZTL2 1-119); assay: ITC; conditions: both partners purified
Lpg2149 (aa 9–119) = Lpg2149 (aa 9–119) (Legionella pneumophila, UniProt Q5ZTL2 9-119); assay: crystal structure; conditions: both partners purified

| Binder | Kd (Lpg2149, wild type) | binding result (Lpg2149 (aa 9–119)) |
| --- | --- | --- |
| MvcA, wild type (enzyme) MIVRGINMTKIKLESPGFMVHKKLKSMSQSYGVMMTGVPAEVLGQMQAERSIPSINKTGNLKQQIAKEVSKVCHMMTEPTQSCGQASNDVCELLLGKIEAEKFHFTKYEALSADGDNLKNVLENTAPSSTNLLIRFEIDREDPPIVLVKTKNENFNPETAVKNKIYLLENKLYFIDKMGNLFNLGPGKKKCTQLFNAIGDSAEYSLCDPFVLEEPEKPEDFAISEIVDIFNEQKERFDFWIGSHSFTIYIPQTLGESPRQFYPYQAYFGSHTLQDWFVSDKDEYLSRIGIDKYIEKLAVLGKTTNTKERSDIYAEFFSKRGREAFFCAHLNEKRQPLRVKFKITEINPELALKNLQETQEFIDTHPGENPSDKVENYRNRAKLAMTEHLESLLDIKPESSPSLFWKNVDKKEQEMTDSSRYKKGPS | ~28.1 nM |  |
| MvcA (aa 1–400) (enzyme) MIVRGINMTKIKLESPGFMVHKKLKSMSQSYGVMMTGVPAEVLGQMQAERSIPSINKTGNLKQQIAKEVSKVCHMMTEPTQSCGQASNDVCELLLGKIEAEKFHFTKYEALSADGDNLKNVLENTAPSSTNLLIRFEIDREDPPIVLVKTKNENFNPETAVKNKIYLLENKLYFIDKMGNLFNLGPGKKKCTQLFNAIGDSAEYSLCDPFVLEEPEKPEDFAISEIVDIFNEQKERFDFWIGSHSFTIYIPQTLGESPRQFYPYQAYFGSHTLQDWFVSDKDEYLSRIGIDKYIEKLAVLGKTTNTKERSDIYAEFFSKRGREAFFCAHLNEKRQPLRVKFKITEINPELALKNLQETQEFIDTHPGENPSDKVENYRNRAKLAMTEHLESLLDIKPESS |  | binds |

Source: publication PMC7265302 (Nature Communications, 2020)
